Changes are numbered by the printed parent chain.
T1: HPV45 VLP (HPV45, UniProt P36741 30-539)
T1 sequence: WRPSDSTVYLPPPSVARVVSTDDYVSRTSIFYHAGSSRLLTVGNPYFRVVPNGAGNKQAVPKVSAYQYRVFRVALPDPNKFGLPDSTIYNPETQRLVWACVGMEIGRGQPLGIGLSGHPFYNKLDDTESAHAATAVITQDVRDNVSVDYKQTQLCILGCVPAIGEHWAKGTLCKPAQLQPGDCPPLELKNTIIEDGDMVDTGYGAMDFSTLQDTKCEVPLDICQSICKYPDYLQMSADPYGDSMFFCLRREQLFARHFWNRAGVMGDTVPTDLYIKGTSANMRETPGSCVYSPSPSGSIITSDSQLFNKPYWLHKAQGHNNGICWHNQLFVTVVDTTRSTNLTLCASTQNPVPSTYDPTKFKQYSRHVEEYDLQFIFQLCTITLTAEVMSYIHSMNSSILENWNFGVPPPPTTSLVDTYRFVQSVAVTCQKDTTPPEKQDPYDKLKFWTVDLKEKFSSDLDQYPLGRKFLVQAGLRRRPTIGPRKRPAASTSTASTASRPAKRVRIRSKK

T2: HPV31 VLP (HPV31, UniProt P17388 1-504)
T2 sequence: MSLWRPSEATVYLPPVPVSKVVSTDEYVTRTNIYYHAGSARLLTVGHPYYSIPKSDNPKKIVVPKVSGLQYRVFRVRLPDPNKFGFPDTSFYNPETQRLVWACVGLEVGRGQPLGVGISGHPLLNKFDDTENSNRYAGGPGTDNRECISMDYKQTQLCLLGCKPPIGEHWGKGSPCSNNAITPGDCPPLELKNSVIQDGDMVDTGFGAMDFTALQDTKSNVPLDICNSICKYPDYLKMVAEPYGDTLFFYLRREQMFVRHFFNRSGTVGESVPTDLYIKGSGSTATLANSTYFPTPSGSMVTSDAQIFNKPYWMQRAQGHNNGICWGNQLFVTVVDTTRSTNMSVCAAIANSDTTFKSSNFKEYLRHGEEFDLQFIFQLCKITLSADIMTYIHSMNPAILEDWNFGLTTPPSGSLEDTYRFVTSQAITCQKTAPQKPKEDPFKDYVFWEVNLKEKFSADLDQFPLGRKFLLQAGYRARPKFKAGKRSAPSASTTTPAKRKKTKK

T3: HPV6 VLP (HPV6, UniProt P69899 1-500)
T3 sequence: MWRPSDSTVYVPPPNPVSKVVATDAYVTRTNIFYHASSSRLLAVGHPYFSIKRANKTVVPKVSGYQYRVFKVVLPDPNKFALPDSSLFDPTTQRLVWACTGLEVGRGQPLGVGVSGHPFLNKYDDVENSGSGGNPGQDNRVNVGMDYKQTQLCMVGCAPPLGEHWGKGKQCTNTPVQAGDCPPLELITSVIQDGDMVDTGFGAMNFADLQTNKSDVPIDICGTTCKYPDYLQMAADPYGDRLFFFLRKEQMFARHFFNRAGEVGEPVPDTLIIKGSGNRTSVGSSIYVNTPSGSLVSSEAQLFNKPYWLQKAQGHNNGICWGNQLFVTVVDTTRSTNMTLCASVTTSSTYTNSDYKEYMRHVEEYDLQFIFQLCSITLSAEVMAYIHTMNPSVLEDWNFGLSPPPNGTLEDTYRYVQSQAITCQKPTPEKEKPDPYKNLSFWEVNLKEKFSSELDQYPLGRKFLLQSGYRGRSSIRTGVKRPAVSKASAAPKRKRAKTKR

T4: HPV33 VLP (HPV33, UniProt P06416 1-499)
T4 sequence: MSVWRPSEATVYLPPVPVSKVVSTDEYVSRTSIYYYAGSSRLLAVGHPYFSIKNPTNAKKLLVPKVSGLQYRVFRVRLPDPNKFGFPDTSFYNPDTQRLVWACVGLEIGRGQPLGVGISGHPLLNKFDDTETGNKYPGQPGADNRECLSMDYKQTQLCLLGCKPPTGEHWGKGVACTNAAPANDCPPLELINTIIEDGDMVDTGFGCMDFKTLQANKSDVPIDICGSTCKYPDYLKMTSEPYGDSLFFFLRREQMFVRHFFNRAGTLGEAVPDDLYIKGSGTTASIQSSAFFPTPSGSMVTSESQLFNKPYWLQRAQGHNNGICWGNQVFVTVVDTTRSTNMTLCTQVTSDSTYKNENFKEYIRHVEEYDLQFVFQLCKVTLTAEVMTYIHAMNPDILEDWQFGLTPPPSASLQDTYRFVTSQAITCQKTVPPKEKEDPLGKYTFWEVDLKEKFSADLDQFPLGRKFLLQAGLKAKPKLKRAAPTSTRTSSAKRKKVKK

T5: HPV11 VLP (HPV11, UniProt P04012 1-501)
T5 sequence: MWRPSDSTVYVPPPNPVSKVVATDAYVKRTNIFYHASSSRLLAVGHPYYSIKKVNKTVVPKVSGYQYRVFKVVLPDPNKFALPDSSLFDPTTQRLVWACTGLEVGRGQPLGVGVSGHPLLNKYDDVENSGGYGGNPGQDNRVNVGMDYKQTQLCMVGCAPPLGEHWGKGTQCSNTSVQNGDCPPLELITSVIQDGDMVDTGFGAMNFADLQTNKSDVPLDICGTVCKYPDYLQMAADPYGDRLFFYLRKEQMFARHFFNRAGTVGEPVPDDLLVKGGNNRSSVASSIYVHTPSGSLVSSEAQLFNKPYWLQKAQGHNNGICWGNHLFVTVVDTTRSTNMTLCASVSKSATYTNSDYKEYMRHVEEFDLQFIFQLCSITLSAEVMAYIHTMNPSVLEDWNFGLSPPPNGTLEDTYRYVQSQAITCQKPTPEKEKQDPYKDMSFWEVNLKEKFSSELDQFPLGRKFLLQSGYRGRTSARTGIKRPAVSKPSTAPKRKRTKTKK

T6: HPV-18 L1 VLP (HPV18, UniProt P06794 62-568)
T6 construct: also called HPV18 VLP
T6 sequence: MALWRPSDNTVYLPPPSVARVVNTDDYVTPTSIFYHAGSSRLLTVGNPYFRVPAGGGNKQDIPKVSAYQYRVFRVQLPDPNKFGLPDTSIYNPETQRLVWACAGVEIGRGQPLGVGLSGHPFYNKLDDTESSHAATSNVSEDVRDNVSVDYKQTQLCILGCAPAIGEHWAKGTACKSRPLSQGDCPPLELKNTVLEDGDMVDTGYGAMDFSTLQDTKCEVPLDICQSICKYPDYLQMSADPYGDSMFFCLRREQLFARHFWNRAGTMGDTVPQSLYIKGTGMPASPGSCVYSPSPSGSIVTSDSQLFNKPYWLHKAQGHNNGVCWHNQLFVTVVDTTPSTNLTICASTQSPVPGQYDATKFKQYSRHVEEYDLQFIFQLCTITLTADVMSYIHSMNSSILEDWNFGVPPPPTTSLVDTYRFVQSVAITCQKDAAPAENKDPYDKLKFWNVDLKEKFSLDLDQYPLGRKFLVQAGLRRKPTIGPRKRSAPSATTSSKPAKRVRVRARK

T7: HPV-58 L1 VLP (HPV58, UniProt P26535 27-524)
T7 construct: also called HPV58VLP
T7 sequence: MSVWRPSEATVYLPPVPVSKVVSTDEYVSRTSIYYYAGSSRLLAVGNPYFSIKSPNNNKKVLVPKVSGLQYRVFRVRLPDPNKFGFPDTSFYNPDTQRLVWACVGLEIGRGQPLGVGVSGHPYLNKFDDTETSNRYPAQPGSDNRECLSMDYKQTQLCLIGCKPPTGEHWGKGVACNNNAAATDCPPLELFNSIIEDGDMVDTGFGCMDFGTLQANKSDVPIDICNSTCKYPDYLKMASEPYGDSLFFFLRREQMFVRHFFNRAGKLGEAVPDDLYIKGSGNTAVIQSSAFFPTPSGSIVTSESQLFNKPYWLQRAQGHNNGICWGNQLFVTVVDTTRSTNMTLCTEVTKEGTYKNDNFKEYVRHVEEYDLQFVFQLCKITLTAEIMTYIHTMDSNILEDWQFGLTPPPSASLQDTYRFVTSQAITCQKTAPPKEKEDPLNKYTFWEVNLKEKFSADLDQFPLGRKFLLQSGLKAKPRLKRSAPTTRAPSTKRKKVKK

B1: 单克隆抗体4G12 (杂交瘤细胞株4G12, CGMCC 11298) (antibody, V domains shown)
VH: VKLQQSGAELVKPGASVKLSCTASGFNIKDTYMHWVKQRPEQGLEWIGRIDPANGNPQYDPKFQGKATITADTSSNTACLQLSSLTSEDTAVFYCAREVGGYYFDYWGQGTTVTVSS
VL: DIQLTRSPAIMSASPGEKVTITCSASSSVSYMHWFQQKPGTSPKLWIYSTSNLASGVPARFSGSGSGTSYSLTISRMEAEDAATYYCQQRSSYPWTFGGGTKLEI
B2: 单克隆抗体5A6 (杂交瘤细胞株5A6, CGMCC 11299) (antibody, V domains shown)
VH: B1 VH with P57T, Q58E, K62N, A71S, C79Y, Q81H, F93Y
VL: DIQLTQSPSSMSASLGDRITITCQATQDIVKNLNWYQQKPGKPPSFLIYYATELAEGVPSRFSGSGSGSDYSLTISNLESEDFADYYCLQFYEFPLTFGAGTKLEI
notes: Capture antibody of the sandwich kit; also called 克隆5A6

Assays:
[1] = molecular target: HPV-16 L1 VLP (重组人乳头瘤病毒-16型VLP蛋白, 未变性) (人乳头瘤病毒16型 (HPV16)) (UniProt P03101); assay: indirect ELISA, HPV16 VLP 200 ng/well coated, antibody at 1, 0.2 and 0.04 ug/ml
Chain of UniProt P03101 (P03101 whole entry): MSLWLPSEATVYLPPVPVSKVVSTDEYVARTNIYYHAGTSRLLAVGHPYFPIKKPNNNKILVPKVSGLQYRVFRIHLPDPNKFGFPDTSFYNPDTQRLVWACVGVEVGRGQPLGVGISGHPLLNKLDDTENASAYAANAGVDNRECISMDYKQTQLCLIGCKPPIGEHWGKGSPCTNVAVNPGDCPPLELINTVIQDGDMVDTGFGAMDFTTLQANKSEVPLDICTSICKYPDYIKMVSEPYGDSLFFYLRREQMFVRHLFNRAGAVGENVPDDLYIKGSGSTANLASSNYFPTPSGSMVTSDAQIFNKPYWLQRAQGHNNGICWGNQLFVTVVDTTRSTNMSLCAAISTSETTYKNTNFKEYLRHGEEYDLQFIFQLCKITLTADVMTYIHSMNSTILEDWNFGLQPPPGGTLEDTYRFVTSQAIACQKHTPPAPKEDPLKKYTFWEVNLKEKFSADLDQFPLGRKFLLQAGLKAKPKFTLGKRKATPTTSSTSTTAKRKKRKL

[2] = molecular target: HPV-16 L1 VLP (重组人乳头瘤病毒-16型VLP蛋白, 未变性) (人乳头瘤病毒16型 (HPV16)) (UniProt P03101); assay: indirect ELISA, native VLP 2 ug/ml coated, antibody 0.3 ug/ml
[3] = molecular target: HPV-16 L1 VLP (重组人乳头瘤病毒-16型VLP蛋白, 未变性) (人乳头瘤病毒16型 (HPV16)) (UniProt P03101); assay: competition ELISA on coated HPV16 VLP; HRP-labelled antibody 0.3 ug/ml; competitor: WHO international standard 05/134 at 0.5 IU/ml
HPV45 VLP = molecular target: T1, HPV45 VLP; assay: SPR, BIACORE 3000
HPV31 VLP = molecular target: T2, HPV31 VLP; assay: SPR, BIACORE 3000
HPV6 VLP = molecular target: T3, HPV6 VLP; assay: SPR, BIACORE 3000
HPV33 VLP = molecular target: T4, HPV33 VLP; assay: SPR, BIACORE 3000
HPV11 VLP = molecular target: T5, HPV11 VLP; assay: SPR, BIACORE 3000
HPV-18 L1 VLP = molecular target: T6, HPV-18 L1 VLP; assay: indirect ELISA, VLP 2 ug/ml coated
HPV-58 L1 VLP = molecular target: T7, HPV-58 L1 VLP; assay: indirect ELISA, VLP 2 ug/ml coated

Row | Binder | 信号强度 (ELISA) [1] | OD450 [2] [OD450] | 抑制率 [3] [%] | binding result (HPV45 VLP) | binding result (HPV31 VLP) | binding result (HPV6 VLP) | binding result (HPV33 VLP) | binding result (HPV11 VLP) | binding result (HPV-18 L1 VLP) | binding result (HPV-58 L1 VLP)
1 | B1 | > 1 | > 1 | > 40 |  |  |  |  |  |  | 
2 | B2 | > 1 | > 1 | > 40 | no binding (tested: antibody up to 20nmol/L) | no binding (tested: antibody up to 20nmol/L) | no binding (tested: antibody up to 20nmol/L) | no binding (tested: antibody up to 20nmol/L) | no binding (tested: antibody up to 20nmol/L) | no binding (tested: 0.3μg/ml) | no binding (tested: 0.3μg/ml)

Reference: patent publication CN105585631A (BEIJING HEALTH GUARD BIOTECHNOLOGY CO LTD, dated 2016)
